Consider seven molecules from article PMC12457637, “An aptamer-drug conjugate for promising cancer therapy with comprehensive evaluation from rodents to non-human primates” (Signal Transduction and Targeted Therapy, 2025).

Read-outs that look alike come from different tables or passages of the source. Non-standard residues stand in square brackets, D forms with d. Residues, ends and D or L forms follow the SMILES beside them. *: point of attachment. Dolaproine = CO[C@@H]([C@@H]1CCCN1)[C@@H](C)C(=O)O; Dil = CC[C@H](C)[C@H](NC)[C@@H](CC(=O)O)OC; X1 = C[C@@H](N*)[C@@H](O)c1ccccc1; NMeV = CN[C@H](C(=O)O)C(C)C

One data set deals with MIA PaCa-2 cells. In words: 72-h cytotoxicity (MTS), MIA PaCa-2. In kind it is cell-based. On the procedure:
Cells were seeded in wells of a 96-well plate (6000 cells/well) and incubated overnight to allow for cell adherence. On the second day, 100 μL complete medium containing VcMMAE and Sgc8c-M (400, 200, 100, 50, 25, 12.5, and 6.25 nM), as well as MMAE (5, 2.5, 1.25, 0.625, 0.3125, 0.15625, and 0.078125 nM), were added to wells of a 96-well plate for an additional 72-h incubation at 37 °C. At the end of incubation, 100 μL of CellTiter 96® Aqueous One Solution Cell Proliferation Assay (MTS, Promega) solution (prepared by mixing 2 mL MTS with 9 mL of complete medium) were added to each well. The plates were then incubated for an additional 1–2 h to allow for the formation of formazan crystals. The absorbance of each well was measured at 490 nm using a Multi-Mode Microplate Reader (TECAN, SPARK) to assess cell viability. Cell viability was calculated as [OD490 (treatment) - OD490 (blank)]/[OD490 (nontreatment) - OD490 (blank)] × 100%.

The next data set concerns MDA-MB-468 xenograft. Briefly: Antitumor efficacy, MDA-MB-468 xenograft. In kind it is in vivo, mice. Conditions: free MMAE at equivalent dose (0.359 mg/kg i.v.). On the procedure:
(§1) In vivo therapeutic evaluations were performed to evaluate the antitumor effects of the PTK7-targeted ApDC Sgc8c-M with comparisons made between the chemotherapeutic drug paclitaxel and the ApDC’s toxic payload MMAE in most cases. […] All tumor models were established on female BALB/c nude mice. Briefly, a 50 μL suspension of tumor cells (SUM159: 5 × 10^6, MDA-MB-468: 1 × 10^7, MIA PaCa-2: 5 × 10^6, OVCAR3: 5 × 10^6, HT-29: 5 × 10^6, NCI-H1975: 5 × 10^6, A549: 5 × 10^6) mixed with an equal volume of Matrigel (BD) was injected s.c. into the right hind flank region of mice. For the TNBC PDX and pancreatic cancer PDX F4 and F5 models, 3–5 mm^3 of tumor fragments were implanted into the right hind flank region of mice. When tumor sizes reached approximately 100 mm^3–300 mm^3, the mice were randomly divided into control and treatment groups. Sgc8c-M (i.v.), paclitaxel (i.p.), MMAE (i.v.), or ADC h6M24-VcMMAE (i.v.) were administered to tumor-bearing mice respectively, and tumor volume and body weight were measured every 2 to 4 days following the initiation of treatment. […] Tumor volume was calculated according to the following equation: Tumor volume = (tumor length × tumor width^2)/2. TGI (%) was calculated as follows: TGI (%) = [1 – (mean of tumor volume in the treatment group)/(mean of tumor volume in the saline group)] × 100.

Details of data set [1]: method as in PMID 31877330. Conditions: cited from earlier work.
A further data set concerns SUM159 xenograft. In words: Antitumor efficacy, SUM159 xenograft. It is filed as in vivo, mice. Conditions: 10 mg/kg i.p., Fig. 2c. The protocol:
as §1

For another data set, the system named is TNBC PDX. Briefly: Antitumor efficacy, TNBC PDX. It is filed as in vivo, mice. Conditions: 10 mg/kg i.p. The protocol:
as §1

In a further data set the target is T1, human PTK7 (Homo sapiens, UniProt Q13308).
T1 construct: His; purchased Sino Biological 19399-H08H
T1 sequence (Q13308 31-704 limits assumed): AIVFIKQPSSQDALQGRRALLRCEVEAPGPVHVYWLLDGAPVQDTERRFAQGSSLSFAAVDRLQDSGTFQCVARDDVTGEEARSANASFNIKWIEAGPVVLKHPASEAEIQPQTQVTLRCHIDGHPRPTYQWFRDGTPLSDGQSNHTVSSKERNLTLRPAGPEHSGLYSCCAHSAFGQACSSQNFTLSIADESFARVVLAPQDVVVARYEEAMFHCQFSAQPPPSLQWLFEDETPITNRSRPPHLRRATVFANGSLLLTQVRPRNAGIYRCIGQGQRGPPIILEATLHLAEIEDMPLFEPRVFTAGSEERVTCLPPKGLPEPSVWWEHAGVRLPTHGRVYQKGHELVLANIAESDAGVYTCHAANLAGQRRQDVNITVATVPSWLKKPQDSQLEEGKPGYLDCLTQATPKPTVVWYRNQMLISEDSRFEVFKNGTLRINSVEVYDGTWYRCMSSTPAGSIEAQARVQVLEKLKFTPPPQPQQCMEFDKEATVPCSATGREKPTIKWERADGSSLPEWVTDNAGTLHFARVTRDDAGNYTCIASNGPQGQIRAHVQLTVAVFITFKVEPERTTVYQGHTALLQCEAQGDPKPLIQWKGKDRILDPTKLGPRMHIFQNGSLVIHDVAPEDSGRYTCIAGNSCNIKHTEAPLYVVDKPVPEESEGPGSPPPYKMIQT
In words: SPR binding to recombinant human PTK7. An excerpt: For SPR analysis, human (#19399-H08H, Sino Biological), mouse (HY-P78761, MCE), rat (HY-P78619, MCE), and cynomolgus monkey (#90979-C08H, Sino Biological) PTK7 proteins with His tags were immobilized on a carboxymethylated dextran CM5 chip on SPR (Cytiva Biacore 8 K). Sodium acetate buffer (NaAC) at pH 5.0/5.5 was used for human and cynomolgus monkey PTK7 proteins, while a pH of 4.5 was applied for mouse and rat PTK7 proteins. His protein was simultaneously immobilized on the CM5 chip as a control using pH 4.5 NaAC. The final concentration of all above proteins was 10 μg/mL. Unreacted carboxyl groups were subsequently deactivated using ethanolamine-HCl. Sgc8c were diluted to 25, 50, 100, 200, and 400 nM in running buffer (DPBS supplemented with 5 mM MgCl2), and Sgc8c-M and Ctrl-M were diluted to 400 nM. Sgc8c, Sgc8c-M, and Ctrl-M were sequentially injected over the immobilized surface from low to high concentrations for a 180-s association phase followed by a 180-s dissociation phase at a flow rate of 10 µL/min. The capture surface was regenerated after each cycle with a 30-s contact time of 1.5 M NaCl at a flow rate of 30 µL/min. The equilibrium dissociation constant (Kd) was subsequently analyzed by Biacore Insight Evaluation software.

For data set [2], the target named is T2, PTK7 (rat, UniProt A0A8I6AKN3 23-696). In words: SPR; 5 mM Mg2+; Kd only in figure; SPR (Biacore 8K, CM5): DPBS + 5 mM MgCl2, 10 uL/min, 180 s association and dissociation; temperature and pH of running buffer not stated. Conditions: protein: commercial; tags: His.
Data set [3] deals with T3, PTK7 (human, UniProt Q13308 31-704).
T3 sequence: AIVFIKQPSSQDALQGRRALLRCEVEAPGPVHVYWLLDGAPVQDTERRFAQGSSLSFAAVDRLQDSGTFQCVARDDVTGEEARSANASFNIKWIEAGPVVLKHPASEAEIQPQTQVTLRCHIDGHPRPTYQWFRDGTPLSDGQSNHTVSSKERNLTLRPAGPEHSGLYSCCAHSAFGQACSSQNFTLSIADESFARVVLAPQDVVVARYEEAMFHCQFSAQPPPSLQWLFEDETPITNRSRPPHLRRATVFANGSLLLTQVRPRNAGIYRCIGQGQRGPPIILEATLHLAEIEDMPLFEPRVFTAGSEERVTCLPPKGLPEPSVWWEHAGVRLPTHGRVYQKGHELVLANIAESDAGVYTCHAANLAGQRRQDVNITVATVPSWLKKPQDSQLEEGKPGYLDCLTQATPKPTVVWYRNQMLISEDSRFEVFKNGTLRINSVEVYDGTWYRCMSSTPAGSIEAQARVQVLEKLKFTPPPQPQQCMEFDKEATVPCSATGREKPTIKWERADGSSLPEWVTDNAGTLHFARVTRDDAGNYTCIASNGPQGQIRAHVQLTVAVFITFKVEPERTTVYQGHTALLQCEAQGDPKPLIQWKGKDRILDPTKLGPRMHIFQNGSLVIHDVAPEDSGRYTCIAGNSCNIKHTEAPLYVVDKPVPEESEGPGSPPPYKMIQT
The data set is described as above. Conditions: protein: commercial; tags: His.

The target of data set [4] is T4, PTK7 (mouse, UniProt Q8BKG3 23-696).
T4 sequence: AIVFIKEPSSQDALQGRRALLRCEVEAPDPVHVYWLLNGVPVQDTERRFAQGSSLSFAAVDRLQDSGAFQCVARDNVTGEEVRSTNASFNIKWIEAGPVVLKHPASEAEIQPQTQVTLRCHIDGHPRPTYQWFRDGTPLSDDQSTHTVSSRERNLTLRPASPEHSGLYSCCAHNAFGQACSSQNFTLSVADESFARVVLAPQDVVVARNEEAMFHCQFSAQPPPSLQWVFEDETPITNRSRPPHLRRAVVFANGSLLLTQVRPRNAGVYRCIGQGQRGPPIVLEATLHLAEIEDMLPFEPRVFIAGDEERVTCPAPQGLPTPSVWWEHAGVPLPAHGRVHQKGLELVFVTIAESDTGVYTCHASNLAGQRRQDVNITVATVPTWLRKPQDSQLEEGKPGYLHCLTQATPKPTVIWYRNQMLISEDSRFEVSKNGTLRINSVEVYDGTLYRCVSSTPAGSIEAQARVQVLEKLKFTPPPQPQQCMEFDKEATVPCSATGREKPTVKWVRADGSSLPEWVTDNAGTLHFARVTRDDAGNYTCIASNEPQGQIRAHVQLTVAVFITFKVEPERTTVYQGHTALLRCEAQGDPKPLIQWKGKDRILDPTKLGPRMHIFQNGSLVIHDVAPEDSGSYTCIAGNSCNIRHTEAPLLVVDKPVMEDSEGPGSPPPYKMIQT
The data set is described as above. Conditions: protein: commercial; tags: His.

The target in data set [5] is T2, PTK7. Briefly: SPR; 5 mM Mg2+; 400 nM; Kd only in figure; SPR (Biacore 8K, CM5): DPBS + 5 mM MgCl2, 10 uL/min, 180 s association and dissociation; temperature and pH of running buffer not stated. Conditions: protein: commercial; tags: His.
Data set [6] deals with T3, PTK7. The data set is described as above. Conditions: protein: commercial; tags: His.
Data set [7] has as its target T4, PTK7. The description is as above. Conditions: protein: commercial; tags: His.
Data set [8] has as its target T3, PTK7. Briefly: SPR; 5 mM Mg2+; 400 nM; SPR (Biacore 8K, CM5): DPBS + 5 mM MgCl2, 10 uL/min, 180 s association and dissociation; temperature and pH of running buffer not stated. Conditions: protein: commercial; tags: His.

As for `CC[C@H](C)[C@@H]([C@@H](CC(=O)N1CCC[C@H]1[C@H](OC)[C@@H](C)C(=O)N[C@H](C)[C@@H](O)c1ccccc1)OC)N(C)C(=O)[C@@H](NC(=O)[C@@H](NC)C(C)C)C(C)C` [MMAE, monomethyl auristatin E] (H-[NMeV]V[Dil][Dolaproine]-X1), the “IC50 lower than that of Sgc8c-M” value in the data set with MIA PaCa-2 cells (MIA PaCa-2) is “approximately 48 fold”. In the data set with MIA PaCa-2 cells (MIA PaCa-2, 72-h incubation), this molecule gave an IC50 of 0.389 nM. For the same molecule, the TGI in the data set on MDA-MB-468 xenograft was found to be 76%. The mortality in data set [1] (single administration of 0.16 mg/kg) is given as 100%.

As for `CC(=O)O[C@H]1C(=O)[C@@]2(C)[C@H]([C@H](OC(=O)c3ccccc3)[C@]3(O)C[C@H](OC(=O)[C@H](O)[C@@H](NC(=O)c4ccccc4)c4ccccc4)C(C)=C1C3(C)C)[C@]1(OC(C)=O)CO[C@@H]1C[C@@H]2O` [paclitaxel], the “tumor growth relative to saline controls” value in the data set with SUM159 xenograft is “partially reduced tumor growth”. Moreover, in the data set on TNBC PDX, the “tumor growth compared to saline controls” value was “failed to significantly inhibit tumor growth”.

B1: h6M24-VcMMAE: PTK7-targeted ADC (DAR4): antibody of h6M24-vc0101 conjugated with the same MMAE payload (conjugate, chains of the INN, looked up)
VH: QVQLVQSGPEVKKPGASVKVSCKASGYTFTDYAVHWVRQAPGKRLEWIGVISTYNDYTYNNQDFKGRVTMTRDTSASTAYMELSRLRSEDTAVYYCARGNSYFYALDYWGQGTSVTVSS
VL: EIVLTQSPATLSLSPGERATLSCRASESVDSYGKSFMHWYQQKPGQAPRLLIYRASNLESGIPARFSGSGSGTDFTLTISSLEPEDFAVYYCQQSNEDPWTFGGGTKLEIK
modifications: vcMMAE payload, DAR4
Consider B1, for which the Kd with human PTK7 stood at 3.18 nM.

Regarding ATCTAACTGCTGCGCCGCCGGGAAAATACTGTACGGTTAGA (structured_DNA) [Sgc8c], the binding result with PTK7 [2], with PTK7 [3] and with PTK7 [4] was “binds” each time.

For the molecule ATCTAACTGCTGCGCCGCCGGGAAAATACTGTACGGTTAGA (structured_DNA, 3'-C6-S-maleimide MC-VC-PAB-MMAE conjugate) [Sgc8c-M], the binding result with PTK7 [5], with PTK7 [6] and in the data set with PTK7 [7] was “binds” each time.

AGATTGGCATGTCATAAAAGGGCCGCCGCGTCGTCAATCTA (ssDNA, 3'-C6-S-maleimide MC-VC-PAB-MMAE conjugate) [Ctrl-M]: the binding result with PTK7 [8] is reported as “no binding”.

B2: Disitamab vedotin: clinically approved ADC, anti-HER2 antibody conjugated with MMAE (conjugate, chains of the INN, looked up)
VH: EVQLVQSGAEVKKPGATVKISCKVSGYTFTDYYIHWVQQAPGKGLEWMGRVNPDHGDSYYNQKFKDKATITADKSTDTAYMELSSLRSEDTAVYFCARNYLFDHWGQGTLVTVSS
VL: DIQMTQSPSSVSASVGDRVTITCKASQDVGTAVAWYQQKPGKAPKLLIYWASIRHTGVPSRFSGSGSGTDFTLTISSLQPEDFATYYCHQFATYTFGGGTKVEIK
modifications: MMAE payload
notes: clinically approved ADC, anti-HER2 antibody conjugated with MMAE
Regarding B2, the mortality in [1] (single injection of 18 mg/kg (approx. 0.35 mg/kg MMAE)) is 50%.
